Assay results from paper PMC12578637, “Structure of a distinct β-barrel assembly machinery complex in the Bacteroidota” (Nature Microbiology, 2025).

T1: BtBamA (Bt3725), B. thetaiotaomicron BamA with N-terminal His7 tag (B. thetaiotaomicron, UniProt Q8A1E1 20-885)
T1 sequence (looked up): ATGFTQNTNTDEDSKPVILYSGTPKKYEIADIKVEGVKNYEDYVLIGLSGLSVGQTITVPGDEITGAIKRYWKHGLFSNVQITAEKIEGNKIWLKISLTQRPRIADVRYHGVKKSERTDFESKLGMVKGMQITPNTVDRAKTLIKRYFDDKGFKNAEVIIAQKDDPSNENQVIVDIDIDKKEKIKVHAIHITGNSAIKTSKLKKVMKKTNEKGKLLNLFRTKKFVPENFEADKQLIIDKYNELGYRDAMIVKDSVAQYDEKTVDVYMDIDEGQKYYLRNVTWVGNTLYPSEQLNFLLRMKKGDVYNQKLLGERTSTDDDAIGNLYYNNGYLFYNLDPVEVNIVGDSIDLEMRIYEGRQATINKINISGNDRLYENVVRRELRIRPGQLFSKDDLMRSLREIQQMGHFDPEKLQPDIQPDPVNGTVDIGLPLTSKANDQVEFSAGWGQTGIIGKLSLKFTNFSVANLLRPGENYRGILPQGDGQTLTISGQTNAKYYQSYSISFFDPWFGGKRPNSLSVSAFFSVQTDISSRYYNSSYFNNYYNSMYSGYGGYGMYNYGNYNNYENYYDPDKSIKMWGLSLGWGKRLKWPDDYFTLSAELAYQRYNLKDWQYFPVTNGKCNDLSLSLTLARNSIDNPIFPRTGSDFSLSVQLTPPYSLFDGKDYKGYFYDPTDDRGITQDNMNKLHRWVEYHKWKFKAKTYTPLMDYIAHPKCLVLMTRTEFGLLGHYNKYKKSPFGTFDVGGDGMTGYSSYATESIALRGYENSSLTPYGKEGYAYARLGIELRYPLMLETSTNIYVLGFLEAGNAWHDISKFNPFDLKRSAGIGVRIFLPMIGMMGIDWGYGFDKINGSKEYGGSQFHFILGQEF

T2: PgBamA, BamA of P. gingivalis ATCC 33277 (P. gingivalis (endogenous in P. …, UniProt B2RHH3 20-891))
T2 construct: BamA of Porphyromonas gingivalis strain ATCC 33277; Periplasmic part only very weak, not modelled, possibly clipped by gingipains; EL3 (39 residues) has no density; source: endogenous, P. gingivalis expressing His-tagged BamH, membranes solubilised in 1% DDM
T2 sequence (looked up): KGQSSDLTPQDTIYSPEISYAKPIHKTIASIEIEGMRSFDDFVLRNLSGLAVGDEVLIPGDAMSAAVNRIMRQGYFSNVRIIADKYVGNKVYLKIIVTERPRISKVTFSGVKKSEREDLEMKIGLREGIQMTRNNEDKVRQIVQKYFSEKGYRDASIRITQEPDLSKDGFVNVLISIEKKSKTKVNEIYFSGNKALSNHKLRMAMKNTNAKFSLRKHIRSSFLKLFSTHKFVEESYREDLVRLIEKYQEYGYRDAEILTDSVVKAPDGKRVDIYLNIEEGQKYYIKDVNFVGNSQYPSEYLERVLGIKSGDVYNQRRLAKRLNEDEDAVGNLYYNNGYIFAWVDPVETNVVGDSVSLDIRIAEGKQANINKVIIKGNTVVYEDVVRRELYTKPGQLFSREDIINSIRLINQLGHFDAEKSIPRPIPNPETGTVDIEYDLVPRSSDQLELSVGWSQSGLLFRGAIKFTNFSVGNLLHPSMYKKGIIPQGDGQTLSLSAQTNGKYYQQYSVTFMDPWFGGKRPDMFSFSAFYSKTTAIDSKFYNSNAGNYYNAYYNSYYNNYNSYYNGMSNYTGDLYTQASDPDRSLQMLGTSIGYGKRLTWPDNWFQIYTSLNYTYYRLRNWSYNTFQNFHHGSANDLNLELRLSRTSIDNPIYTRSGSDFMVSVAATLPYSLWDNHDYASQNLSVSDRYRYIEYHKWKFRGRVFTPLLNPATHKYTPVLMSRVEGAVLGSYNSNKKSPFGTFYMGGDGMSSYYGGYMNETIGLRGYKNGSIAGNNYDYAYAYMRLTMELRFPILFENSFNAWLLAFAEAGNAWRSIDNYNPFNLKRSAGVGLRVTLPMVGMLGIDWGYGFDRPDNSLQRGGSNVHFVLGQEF

T3: BtBamH (Bt4306) (B. thetaiotaomicron (endogenous in B. …, UniProt Q89ZS0 18-542, tri-acylated lipid anchor on the N-terminal cysteine)); O-glycosylation (Ser309 among the sites))
T3 sequence (looked up): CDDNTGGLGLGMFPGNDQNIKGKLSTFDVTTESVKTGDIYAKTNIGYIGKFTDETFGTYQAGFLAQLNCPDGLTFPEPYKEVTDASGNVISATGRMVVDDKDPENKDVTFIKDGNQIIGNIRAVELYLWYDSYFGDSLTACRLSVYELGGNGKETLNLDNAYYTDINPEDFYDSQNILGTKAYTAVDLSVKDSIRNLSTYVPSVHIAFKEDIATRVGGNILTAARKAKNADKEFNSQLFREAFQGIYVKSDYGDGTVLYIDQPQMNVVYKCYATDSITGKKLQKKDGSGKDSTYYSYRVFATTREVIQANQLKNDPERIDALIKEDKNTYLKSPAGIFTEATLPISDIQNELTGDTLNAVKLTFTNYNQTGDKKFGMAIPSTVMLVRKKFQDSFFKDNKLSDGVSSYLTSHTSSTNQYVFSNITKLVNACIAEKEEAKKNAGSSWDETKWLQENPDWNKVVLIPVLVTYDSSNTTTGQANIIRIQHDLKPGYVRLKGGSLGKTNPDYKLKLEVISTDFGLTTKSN

B1: BtBamD (Bt0573) (natural protein, UniProt Q8AA92 18-267, looked up)
chain: CGEYNKLLKSTDYEYKYEAAKNYFAKGQYNRSATLLNELITILKGTDKAEESLYMLGMSYYNQKDYQTAAQTFITYFNTYPRGTFTELARFHAGKSLFLDTPEPRLDQSSTYQAIQQLQMFMEYFPNSTKKQEAQDMIFALQDKLVLKELYSAKLYYNLGNYLGNNYESCVITAQNALKDYPYTDYREELSILILRARHEMAIYSVEDKKMDRYRETIDEYYAFKNEFPESKYLKEAEKIFNESQKVIKD
B2: PgBamG, BamG of P. gingivalis ATCC 33277 (natural protein, UniProt B2RKY8 31-434, looked up)
chain: QNNNFTESPYTRFGLGRLGERTTISGHSMGGLGVGLRQGTYVNAVNPASYSAVDSMTFIFDFGASTGITWYAENGKKDNRKMGNIEYFAMLFPISKSIAMSAGVLPYSASGYQFGSVDQVEGGSVQYTRKYLGTGNLNDLYVGIGATPFKNFSIGANASFLFGRFTHSRQVIFSTEAPYNPVHLSTLYLKAAKFDFGMQYHLPLKSDRSLVIGAVYSPRVKMHSELTQIKNQVQNGVVVESETQEYIKGMDYYTLPHTLGIGFSYEKKDKLLLGADVQYSKWKGEKFYKSDCKFQDRIRVSLGGEIMPDINAVGIWPKVRYRFGLHGENSYLKVPTKGGVYQGYHIVGAVFGIGIPLNDRRSFVNVSLEYDRLIPKEGMIKENALKLTFGLTFNESWFKKLKLN
modifications: O-glycosylation (Ser85)
notes: BamG of Porphyromonas gingivalis strain ATCC 33277; source: endogenous, P. gingivalis expressing His-tagged BamH, membranes solubilised in 1% DDM
B3: PgBamH (PGN_1735) with C-terminal 7His tag (natural protein, P. gingivalis, UniProt B2RLK9 19-455, looked up)
chain: CDDDLSPIGGSIQPPSDPVSARVDTLEFSVKTIPMGDIYNRTNYTLLGDLTDPEYGDLKADYIMQFKSPRNFKFKYPPKDGKIDSVKLSINYDSWAGDSTSIMKVSIYKINKAIPPSYYSTQELASLLDETQIIASQTFKAGNDSAFHRVRIPLPNEIGQKIYDLSVNNPSVFDTQESFYNNVLGGLYVTTTTGTGVVLSVYNTQMAIFYSYKVAADSTATASETFVNTSESYQVNHIKNSQISHLLQENDSLSCVKSPAGVMTQLTISKEQFTDAFTSNLSSSLAWQIGEAQFNISASKPSEGLMLSPPSYLLLLPQDSVRNFFEQEQTELMQPRTAFLSTIYNIKKREYRFSNISRLLMEHIKNNTEKTPEGKPYITKDLVLVLLPVKRQVAGASNSLYTSQLNNFMFPSGVKLQLGKKNKTARIGVYSMTYTDN
modifications: tri-acylated lipid anchor; O-glycosylation (7 sites)
notes: BamH (PGN_1735) of Porphyromonas gingivalis strain ATCC 33277, surface-exposed lipoprotein; 88 residues shorter than BtBamH; also called His-tagged BamH; source: C-terminally His-tagged by homologous recombination in P. gingivalis; membranes solubilised in 1% DDM; not shown: His7, C-terminal, kept
B4: PgBamJ, BamJ of P. gingivalis ATCC 33277 (natural protein, UniProt B2RH82 25-185, looked up)
chain: CEKRPNEEKQRRHDNEVAFNAYADSTNFKKVSVDGSTAYVYMRWITNGTGTEHPIATSRVEVHYQTYRLVGNIMVDGNYNSEKPARITLYRNEKDKSITGFRIALQNMVIGDECEFIVPWYLAYGSKGVPASSANLVPIPSYSALRFIVKLSGIIPEEDKK
notes: BamJ (peptidyl-prolyl isomerase) of Porphyromonas gingivalis strain ATCC 33277; source: endogenous, P. gingivalis expressing His-tagged BamH, membranes solubilised in 1% DDM
B5: PgBamK, BamK of P. gingivalis ATCC 33277 (natural protein, UniProt B2RK12 24-203, looked up)
chain: CKKSDIKSLKEMKKDERKAIESFINRMGFTIKEGHEGQSEFDPDIMYHFDNDLYMQVLDKGKEPPVLNKTKINVRMEGFMFNRERDSIYVFNSLTSGGFQESVFRYIYKYNDGDIHFELIKCTTGSNLDMFVCEGVAFPMTMLGNKARVRLIVPFRIGPESLYSRGLTGYYKEVEYVFRD
notes: BamK (peptidyl-prolyl isomerase) of Porphyromonas gingivalis strain ATCC 33277; source: endogenous, P. gingivalis expressing His-tagged BamH, membranes solubilised in 1% DDM
B6: BtBamK (Bt3949) (natural protein, UniProt Q8A0S2 21-214, looked up)
chain: CDDSKTYAEMLEDEKNAVNKFIKDKGIRIISQDEFEKNDTVTNLERNEYVALSDGVYMQIVDRGSAENKTDTFANNNEICVRYIEEDIMTRDTTCFNVFLEEWGDANQLYTNPAVFRYVAEGSYVYGTFIQMDYYWASYYQSTAVPAGWLLALPFVRNYAHVRLIVPSKVGHSSAQQYVNPYYYDIWTFSKALN
modifications: lipid anchor cysteine; O-glycosylation sites
B7: BtBamI (Bt3727) (natural protein, UniProt Q8A1D9 22-493, looked up)
chain: CLDNDNEVNYSPDATIRAFELDTIGYGVNYKFTIDQVSRLIYNVDSLPVNADTIINSILIKTLTTASGIVTMKDQNDQDSIVNINDSIDLTKYVNATEKNNFLVLKVWAPNMEVQNEYKVNIRMHTMVPDSLSWGKDPIANNPVRNTAEKQKVVTLGDKILLFAQNNEIYSTAIPAGSPTDRLNYGQKWDKETTGKLPDGADVTSIIRFVDKLYLLTKNKEVYNSNDGLTWTKDEVLNSDGVSVTNLITSFSDSDGSNHKKINGIAGIVEINGEKYFSFAEKDVTWEKDIDKLTVVPAEFPINNLSADVYATESGTLNAIVVGNTEDGLDNDTATVVWASEDGKAWIPMEIPSNNNCPKLVDPSIIHYNDAFYICGKETKDDAKGFQKFYTSPTLLVWKGVDRMFMLPGILPPVKLEGGVTQHPSLHESSFKGKEVNYTMVVDRNHYIWMVGGQGIDKIWRGRVNKLGFLIQ
modifications: lipid anchor cysteine; O-glycosylation at 10 sites (Ser67 among them)

Legend:
[1] = biological target: T1, BtBamA (Bt3725), B. thetaiotaomicron …; assay: affinity purification with mass spectrometry; chromosomally His7-tagged BamA as bait; B. thetaiotaomicron total membranes solubilised in TBS with 0.75% DDM and 0.75% DM; Ni IMAC, SEC in 10 mM HEPES-NaOH, 100 mM NaCl, 0.03% DDM pH 7.5; SDS-PAGE bands of pooled SEC peak fractions identified by peptide fingerprinting; IMAC elutions by quantitative proteomics against untagged wild-type cells; conditions: partners not purified
[2] = biological target: T2, PgBamA, BamA of P. gingivalis ATCC 33277; assay: cryo-EM structure; PgBAM complex co-purified through C-terminally His-tagged BamH from P. gingivalis membranes, in DDM, 4.9 mg/ml; 3.24 Å class without periplasmic density; AF2 models docked and refined; conditions: both partners purified
[3] = biological target: B3; assay: as above; conditions: both partners purified
BtBamH (Bt4306) = biological target: T3, BtBamH (Bt4306); assay: cryo-EM structure; BtBAM complex co-purified through BamAhis from native membranes, in DDM, 8 mg/ml; two 3D classes (3.28 Å and 3.46 Å); AF2 models docked and refined; conditions: both partners purified

B1
binding result [1]: binds

B2
binding result [2]: binds
binding result [3]: binds

B3
binding result [2]: binds

B4
binding result [3]: binds

B5
binding result [3]: binds

B6
binding result (BtBamH (Bt4306)): binds

B7
binding result (BtBamH (Bt4306)): binds
